Reference: US20240035010, “COMPOSITIONS COMPRISING A VARIANT POLYPEPTIDE AND USES THEREOF” (Arbor Biotechnologies, Inc., published 2024)

T1: variant nuclease L38G combination (P14R, D32R, I61R, E311R, L38G)
T1 chain: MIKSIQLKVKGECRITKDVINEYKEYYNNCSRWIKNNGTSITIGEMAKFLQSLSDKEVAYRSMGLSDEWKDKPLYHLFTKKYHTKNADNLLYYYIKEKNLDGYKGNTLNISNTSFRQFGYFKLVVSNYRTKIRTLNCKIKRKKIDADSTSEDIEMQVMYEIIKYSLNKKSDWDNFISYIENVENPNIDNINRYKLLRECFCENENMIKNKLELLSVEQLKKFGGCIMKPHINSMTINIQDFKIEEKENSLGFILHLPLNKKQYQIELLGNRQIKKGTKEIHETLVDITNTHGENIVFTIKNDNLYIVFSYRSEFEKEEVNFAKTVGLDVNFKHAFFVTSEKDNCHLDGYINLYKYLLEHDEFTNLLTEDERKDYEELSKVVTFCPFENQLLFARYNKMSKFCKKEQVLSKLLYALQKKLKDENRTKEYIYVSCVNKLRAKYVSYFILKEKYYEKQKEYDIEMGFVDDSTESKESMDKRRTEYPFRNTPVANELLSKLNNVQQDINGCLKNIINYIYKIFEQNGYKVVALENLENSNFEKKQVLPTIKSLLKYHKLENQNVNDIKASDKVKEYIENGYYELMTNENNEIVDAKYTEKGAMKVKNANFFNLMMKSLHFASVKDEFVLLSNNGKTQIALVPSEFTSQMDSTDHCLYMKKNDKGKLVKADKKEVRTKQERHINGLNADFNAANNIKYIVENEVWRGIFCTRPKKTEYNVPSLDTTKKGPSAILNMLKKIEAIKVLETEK

T2: variant nuclease D590G combination (P14R, D32R, I61R, E311R, D590G)
T2 chain: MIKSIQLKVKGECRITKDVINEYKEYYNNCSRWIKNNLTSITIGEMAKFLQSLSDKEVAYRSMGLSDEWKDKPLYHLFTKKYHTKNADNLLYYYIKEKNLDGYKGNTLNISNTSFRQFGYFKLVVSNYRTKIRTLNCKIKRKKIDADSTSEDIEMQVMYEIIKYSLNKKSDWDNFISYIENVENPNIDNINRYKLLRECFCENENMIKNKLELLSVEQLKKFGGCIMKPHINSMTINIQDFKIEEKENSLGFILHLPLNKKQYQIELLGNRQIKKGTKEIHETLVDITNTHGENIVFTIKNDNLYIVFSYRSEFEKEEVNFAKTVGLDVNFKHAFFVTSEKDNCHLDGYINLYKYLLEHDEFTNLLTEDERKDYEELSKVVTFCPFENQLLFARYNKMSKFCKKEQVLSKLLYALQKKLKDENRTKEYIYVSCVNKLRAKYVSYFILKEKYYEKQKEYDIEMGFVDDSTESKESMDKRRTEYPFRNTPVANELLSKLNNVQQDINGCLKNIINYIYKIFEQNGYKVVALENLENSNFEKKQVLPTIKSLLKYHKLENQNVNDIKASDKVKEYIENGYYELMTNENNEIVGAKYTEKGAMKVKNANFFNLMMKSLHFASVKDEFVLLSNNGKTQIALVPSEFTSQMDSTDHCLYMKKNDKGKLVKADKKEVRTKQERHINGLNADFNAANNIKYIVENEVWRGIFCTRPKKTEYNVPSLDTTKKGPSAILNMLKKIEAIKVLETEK

B1: VEGFA crRNA ; VEGFA target (ssRNA ; dsDNA)
RNA: CUUGUUGUAUAUGUCCUUUUAUAGGUAUUAAACAACUCCAGACCACCAAUGGGCAC
DNA 1: TCCAGACCACCAATGGGCAC
DNA 2: GTGCCCATTGGTGGTCTGGA
B2: AAVS1 crRNA ; AAVS1 target (ssRNA ; dsDNA)
RNA: CUUGUUGUAUAUGUCCUUUUAUAGGUAUUAAACAACUGAGAAUGGUGCGUCCUAGG
DNA 1: TGAGAATGGTGCGTCCTAGG
DNA 2: CCTAGGACGCACCATTCTCA

How the values were obtained:
Conditions in all cases: tags: pcDNA3.1 expression
[1] = biological target: T1, variant nuclease L38G combination; experiment: cell_activity; PAM 5'-TTTA-3'
Description: (§1) Approximately 16 hours prior to transfection, 25,000 HEK293T cells in DMEM/10% FBS+Pen/Strep (D10 media) were plated into each well of a 96-well plate. On the day of transfection, the cells were 70-90% confluent. For each well to be transfected, a mixture of Lipofectamine 2000™ and Opti-MEM™ was prepared and incubated at room temperature for 5 minutes (Solution 1). After incubation, the Lipofectamine 2000™:Opti-MEM™ mixture was added to a separate mixture containing nuclease plasmid, RNA guide plasmid, and Opti-MEM™ (Solution 2). In the case of negative controls, the RNA guide plasmid was not included in Solution 2. Solutions 1 and 2 were mixed by pipetting up and down, then incubated at room temperature for 25 minutes. Following incubation, the Solution 1 and 2 mixture was added dropwise to each well of a 96-well plate containing the cells. Approximately 72 hours post transfection, cells were trypsinized by adding TrypLE™ to the center of each well and incubating at 37° C. for approximately 5 minutes. D10 media was then added to each well and mixed to resuspend cells. The resuspended cells were centrifuged at 500 g for 10 minutes to obtain a pellet, and the supernatant was discarded. The cell pellet was then resuspended in QuickExtract™ buffer (Lucigen®), and cells were incubated at 65° C. for 15 minutes, 68° C. for 15 minutes, and 98° C. for 10 minutes.
(§2) This Example describes assessment of indel activity at multiple target sites using the wild-type polypeptide of SEQ ID NO: 3 or variant polypeptides of Table 4. The variant polypeptides were cloned into a pcDNA3.1 backbone (Invitrogen), and the cells were transfected as described in Example 7.
(§3) The percentage of NGS reads containing indels (% indels) were calculated. For each variant polypeptide and target, % indels were averaged across two bioreplicates and two technical replicates. These values were then compared to % indels of the wild-type polypeptide of SEQ ID NO: 3.

[2] = biological target: T2, variant nuclease D590G combination; experiment: cell_activity; PAM 5'-TTTA-3'
Description: as §1, §2, §3

[3] = biological target: T1, variant nuclease L38G combination; experiment: cell_activity; PAM 5'-TTTG-3'
Method in brief: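 HEK293T cells were lipofected with nuclease plasmid (pcDNA3.1 backbone) plus RNA guide plasmid, with guide omitted in negative controls. After ~72 h cells were lysed in QuickExtract and % indels were derived from NGS reads, averaged over two bioreplicates and two technical replicates.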

Row | Binder | indel activity [1] | indel activity [2] | indel activity [3]
1 | B1 | 0.22 fold of WT | 2.68 fold of WT | –
2 | B2 | – | – | 1.28 fold of WT
